Experimental data published in the RNAGym collection of RNA variant scans (doi:10.1073/pnas.2313332121).

B1: TPR t1 (parent)
chain: GACCAAUCUGCCCUCAGAGCUCGAGAACAUCUUCGGAUGCAGAGGAGGCAGGCUUCGGUGGCGCGAUAGCGCCAACGUCCUCAACCUCCAAUGCAUCCCACCACAUGAUGAUGCCUGAAGAGCCUUGGUUUUUUG

Variants of: B1
Test: polymerase ribozyme fitness, log enrichment relative to wild type (log ratio); higher = more active; in vitro selection for triplet polymerase activity
How it was run: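 For each subunit of a heterodimeric triplet polymerase ribozyme, a mutant library was built by PCR and transcribed, then taken through a single in vitro selection round in triplicate. Selection involved annealing to a biotinylated primer, the partner subunit and triplets, incubation frozen at −7 °C, gel excision of extended constructs, capture on streptavidin beads and RT-PCR. Genotypes were retained after Illumina sequencing of inputs and outputs only with ≥10 input reads and ≥1 read in each output. Fitness is defined as the logarithm of a genotype's enrichment relative to wild-type enrichment, using inverse-variance-weighted averages across replicates, with the logarithm taken to base 2.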

Going from A37C G63C G77C C88U A105U to A37C A46G G61U C64U, the “polymerase ribozyme fitness (log ratio)” value rises from -5.64 to -5.42.

Compared with G36C U54G C73A, A37G G47C C64U U87A G120C C124G is lower in “polymerase ribozyme fitness (log ratio)” value: -2.09 for the first, -3.3 for the second.

Compared with C34U U59G A121C C124G, A37C G48C U54C G63A A74U G113A is lower in “polymerase ribozyme fitness (log ratio)” value: -3.59 for the first, -5.41 for the second.

First: C34U U59A
Second: G35A C86G
The “polymerase ribozyme fitness (log ratio)” value of the first is lower: -5.75 for the first, -5.03 for the second.

Going from G35A G45C G71C G77C C104U C114G to A37U C56G, the “polymerase ribozyme fitness (log ratio)” value rises from -5.08 to -1.11.

First: G36A C40A C53G U59C C124G
Second: C34G C98G C115A U125A
The “polymerase ribozyme fitness (log ratio)” value of the first is higher: -2.06 for the first, -7.53 for the second.

Compared with G36C C49G C70U, G36U G42U is lower in “polymerase ribozyme fitness (log ratio)” value: -2.37 for the first, -3.46 for the second.

First: C34G G120A
Second: C34G C115G
The “polymerase ribozyme fitness (log ratio)” value of the first is higher: -5.16 for the first, -7.42 for the second.

Going from C34U G69U to G36U A90G C97G U106C, the “polymerase ribozyme fitness (log ratio)” value falls from -0.765 to -1.51.

Going from G35U C82U C115A to G36A G61A A103C A118U, the “polymerase ribozyme fitness (log ratio)” value rises from -6.43 to -5.74.

Compared with C34G C62U C94G A105C U130C, A37U C72G U78C A119U is higher in “polymerase ribozyme fitness (log ratio)” value: -7.14 for the first, -1.26 for the second.

Compared with G36C G51C C70U U87A C94U C123U, A37U G44C A100G C104U C115A is higher in “polymerase ribozyme fitness (log ratio)” value: -5.76 for the first, -5.44 for the second.

First: C34G U125A
Second: G36U C40A U81A G120C G122A
The “polymerase ribozyme fitness (log ratio)” value of the first is lower: -5.11 for the first, -4.24 for the second.

Compared with G36U G48U U78A, A37U C114A is higher in “polymerase ribozyme fitness (log ratio)” value: -2.21 for the first, -0.828 for the second.

Compared with A37U A41C U55C U87G C88U, G35C C53G C56U U130A is lower in “polymerase ribozyme fitness (log ratio)” value: -2.92 for the first, -6.86 for the second.

First: G36U C104U
Second: C34U G52A C62G A119G C123U G135C
The “polymerase ribozyme fitness (log ratio)” value of the first is higher: -1.41 for the first, -5.87 for the second.

Compared with G35A C99G U133G, C34U G36U G61A C97G A119G is higher in “polymerase ribozyme fitness (log ratio)” value: -5.8 for the first, -3.91 for the second.

G36U G71C and G36U A50C A84U are within 0.2 log units of each other in “polymerase ribozyme fitness (log ratio)” value: -1.92 for the first, -1.94 for the second.

Going from C34A G93A C101U to G35U G39A, the “polymerase ribozyme fitness (log ratio)” value falls from -3.81 to -5.13.

Compared with G35U G69A U81C G113U, C34U C101U U112A is lower in “polymerase ribozyme fitness (log ratio)” value: -6.53 for the first, -6.92 for the second.

First: G36C U78C A95C
Second: A37U A83U U106A
The “polymerase ribozyme fitness (log ratio)” value of the first is lower: -2.98 for the first, 0.192 for the second.

First: C34G C72U U109A A119U C123U
Second: G36U G60A G113A
The “polymerase ribozyme fitness (log ratio)” value of the first is lower: -8.4 for the first, -1.62 for the second.

Going from C34U G117U to A37U C72U A83G C86U, the “polymerase ribozyme fitness (log ratio)” value rises from -5.02 to 0.0963.

Going from G35U G39U C72U A75U A103U to G35A C73G C80A A121G, the “polymerase ribozyme fitness (log ratio)” value rises from -8.04 to -6.83.

Going from A37G U78A C82G A119U to A37C C64U U92G, the “polymerase ribozyme fitness (log ratio)” value falls from -0.542 to -2.59.

First: G36A A43C C115A
Second: A37C U55G C76U A105U
The “polymerase ribozyme fitness (log ratio)” value of the first is lower: -3.76 for the first, -2.68 for the second.

Compared with G35A G47A G57U, C34A U54A is higher in “polymerase ribozyme fitness (log ratio)” value: -3.97 for the first, -1.22 for the second.

Going from A37G C72U C88G C104U G113A to A37U C97G U112C, the “polymerase ribozyme fitness (log ratio)” value rises from -4.89 to -4.07.

Going from C34G C79A A91C C97U C99U A100C C101U G113C U130A to A37U G47U C73U C101G C114U U126G, the “polymerase ribozyme fitness (log ratio)” value falls from -6.71 to -7.11.

First: A37G C76G C80G
Second: G36U G61A G117U
The “polymerase ribozyme fitness (log ratio)” value of the first is lower: -6.38 for the first, -5.19 for the second.

Going from G36U C40U G51U A68G C72U A111U A119C G120A to G36U G120U, the “polymerase ribozyme fitness (log ratio)” value rises from -8.09 to 0.153.

Going from G36U G120C to G35U C73U U112C, the “polymerase ribozyme fitness (log ratio)” value falls from 0.124 to -2.9.

Compared with C34A G120A, C34U C56A is lower in “polymerase ribozyme fitness (log ratio)” value: -2.29 for the first, -5.06 for the second.

Going from G35A G60C to G36C C114A G120A, the “polymerase ribozyme fitness (log ratio)” value rises from -5.49 to -2.49.

Going from G35A U55A U78G C89U A91C C124A U126G G128U to C34U C62A, the “polymerase ribozyme fitness (log ratio)” value rises from -6.76 to -4.23.

First: G36A G110U A121U
Second: A37U C82G
The “polymerase ribozyme fitness (log ratio)” value of the first is lower: -2.05 for the first, -0.955 for the second.

Compared with A37G C115U, G36A C70U C76A C85U is lower in “polymerase ribozyme fitness (log ratio)” value: -0.85 for the first, -3.99 for the second.

First: G36C A50C G52A
Second: C34U U106A
The “polymerase ribozyme fitness (log ratio)” value of the first is higher: -4.73 for the first, -4.95 for the second.

Compared with C34U U106C, G36C G47A G110A G127U is higher in “polymerase ribozyme fitness (log ratio)” value: -3.99 for the first, -2.57 for the second.

First: G36U U78G C115G
Second: G36U G44A G63A
The “polymerase ribozyme fitness (log ratio)” value of the first is lower: -4.29 for the first, -3.52 for the second.

Compared with A37G U92A, A37U C86A is higher in “polymerase ribozyme fitness (log ratio)” value: -2.8 for the first, -0.797 for the second.

In the case of A37G C98U, the “polymerase ribozyme fitness (log ratio)” value is reported as -1.79.
